Test results as given in PMC10635833, “A MEC-2/stomatin condensate liquid-to-solid phase transition controls neuronal mechanotransduction during touch sensing” (Nature Cell Biology, 2023).

Target: the molecule itself
Assay: NMR signal intensities and chemical shifts (1H-15N correlation spectra) of the mutant against the wild type; per-residue chemical shift difference and intensity ratio between MEC-2 C-terminal domain WT and R385H, no partner added

B1: MEC-2 C-terminal domain R385H mutant (domain or fragment, C. elegans, UniProt Q27433 371-481, looked up)
chain: PPKVEEPPSLPKKIHSCCLYKYPDWVQGMVGSEGGGGHGHSHGGGGGGLGSSQGAFHPSQAGSGPSTTTTSGRPLLRSMREAQFHSAAPPISAPNQSQTSVSQLDPALLIR
notes: MEC-2 (stomatin), C. elegans, C-terminal domain, residues 371-481 as for the wild-type construct, with R385H (allele u26); also called MEC-2 (R385H); u26 allele
binding result: binds
